Patent US9815881B2, “Method of inducing labor or treating pre-eclampsia by administering relaxin analogs” (The Board of Trustees of the Leland Stanford Junior …, priority 2009, dated 2017)
Entries after “also recorded” stand apart in the source; their conditions may differ. Where no end group is shown, it is not given here.

T1: LGR7 (Homo sapiens, UniProt Q9HBX9)
T1 construct: HEK293T cells stably expressing recombinant LGR7 or LGR8; expressed in transfected cells
T1 sequence (Q9HBX9 1-757): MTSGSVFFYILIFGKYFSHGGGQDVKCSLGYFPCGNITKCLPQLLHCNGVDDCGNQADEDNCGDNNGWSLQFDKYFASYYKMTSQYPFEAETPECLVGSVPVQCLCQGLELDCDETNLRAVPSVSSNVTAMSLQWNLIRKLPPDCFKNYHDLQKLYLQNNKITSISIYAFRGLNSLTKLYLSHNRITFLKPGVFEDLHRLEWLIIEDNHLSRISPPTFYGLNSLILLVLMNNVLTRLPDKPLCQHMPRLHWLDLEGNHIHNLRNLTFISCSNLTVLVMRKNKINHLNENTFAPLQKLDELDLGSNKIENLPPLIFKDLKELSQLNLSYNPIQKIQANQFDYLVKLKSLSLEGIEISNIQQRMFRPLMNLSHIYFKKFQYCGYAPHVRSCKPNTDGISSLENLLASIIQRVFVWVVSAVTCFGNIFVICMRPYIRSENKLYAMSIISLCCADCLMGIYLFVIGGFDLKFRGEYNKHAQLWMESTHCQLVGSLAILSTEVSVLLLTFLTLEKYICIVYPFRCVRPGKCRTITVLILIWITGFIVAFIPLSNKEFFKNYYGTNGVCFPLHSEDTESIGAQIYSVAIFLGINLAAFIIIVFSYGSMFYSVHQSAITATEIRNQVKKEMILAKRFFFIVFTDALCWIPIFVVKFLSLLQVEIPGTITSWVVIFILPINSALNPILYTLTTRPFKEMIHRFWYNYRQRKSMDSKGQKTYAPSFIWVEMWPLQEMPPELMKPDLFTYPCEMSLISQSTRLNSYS

B1: WT RLN2: recombinant tagged wild type human relaxin H2 (RLN2) (protein, listed as Homo sapiens)
chain: MPRLFFFHLLGVCLLLNQFSRAVADSWMEEVIKLCGRELVRAQIAICGMSTWSKRSLSQEDAPQTPRPVAEIVPSFINKDTETINMMSEFVANLPQELKLTLSEMQPALPQLQQHVPVLKDSSLLFEEFKKLIRNRQSEAADSSPSELKYLGLDTHSRKKRQLYSALANKCCHVGCTKRSLARFC
modifications: tag; RLN2 polypeptide

Tests used:
LGR8 [1] = target: T2, LGR8 (Homo sapiens, UniProt Q8WXD0); assay: Receptor-binding assay: competition for 125I-labeled RLN2 binding to LGR8-expressing HEK293T cells; conditions: for LGR8-binding activity (result in words): competition for labeled RLN2 binding to LGR8
T2 construct: HEK293T cells stably expressing recombinant LGR7 or LGR8; expressed in transfected cells
T2 sequence (Q8WXD0 whole entry): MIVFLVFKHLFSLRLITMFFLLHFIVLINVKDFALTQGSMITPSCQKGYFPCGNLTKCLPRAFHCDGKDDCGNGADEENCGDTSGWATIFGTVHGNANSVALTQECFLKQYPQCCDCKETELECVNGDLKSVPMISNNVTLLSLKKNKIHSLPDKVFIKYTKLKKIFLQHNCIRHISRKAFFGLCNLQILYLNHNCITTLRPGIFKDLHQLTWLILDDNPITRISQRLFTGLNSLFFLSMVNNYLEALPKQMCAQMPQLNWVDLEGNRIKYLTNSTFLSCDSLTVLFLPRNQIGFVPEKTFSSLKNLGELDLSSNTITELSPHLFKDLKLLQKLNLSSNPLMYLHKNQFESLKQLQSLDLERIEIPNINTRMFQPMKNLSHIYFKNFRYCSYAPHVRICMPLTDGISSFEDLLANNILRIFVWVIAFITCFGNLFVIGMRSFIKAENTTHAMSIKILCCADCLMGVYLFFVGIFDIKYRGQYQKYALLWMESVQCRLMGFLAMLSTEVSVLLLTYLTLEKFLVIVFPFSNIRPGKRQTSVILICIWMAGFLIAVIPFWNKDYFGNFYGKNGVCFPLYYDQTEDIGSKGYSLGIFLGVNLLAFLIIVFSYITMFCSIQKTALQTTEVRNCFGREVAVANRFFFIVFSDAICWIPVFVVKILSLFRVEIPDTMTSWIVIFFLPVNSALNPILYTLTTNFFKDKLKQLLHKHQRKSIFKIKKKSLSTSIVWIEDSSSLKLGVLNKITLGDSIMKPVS
Experimental: (§1) To determine the binding characteristics of wild type and mutant peptides, HEK293T cells expressing LGR7 or LGR8 were grown to 90% confluence, collected by centrifugation at 3000×g for 2 min, and washed two times in 2 ml of ice-cold binding buffer. Cells were resuspended in ice-cold binding buffer, and aliquots of cell suspension were incubated with increasing doses of purified recombinant peptides in the presence of 0.025 pmol of ^125I-labeled RLN2 tracer (Phoenix Pharmaceuticals, Burlingame, Calif.) at room temperature for 2 h. After washing three times in an ice-cold binding buffer, radioactivity bound to the cells was measured using a γ-counter (EG&G Wallace, Gaithersburg, Md.). Total binding was determined in the absence, and nonspecific binding in the presence, of 25 nmol of unlabeled RLN2. In regular assays, total binding was ˜30,000 cpm, and nonspecific binding amounted to less than 20% of the total binding. Data points were collected in triplicate, and similar results were obtained in at least two independent assays.
(§2) Receptor-activation and receptor binding activity curves generated in nonlinear regression analyses (Prism; GraphPad Software, San Diego, Calif.) were evaluated relative to the samples without hormone treatment. In all cases data are reported as the mean±S.E. of assays in triplicate or quadruplicate. Statistically significant responses (p<0.05) were determined for each stimulated response to the average nonspecific response from control samples using analysis of variance and Student's t test.

LGR7 [2] = target: T1, LGR7; assay: Receptor-binding assay: competition for 125I-labeled RLN2 binding to LGR7-expressing HEK293T cells; conditions: for LGR7-binding activity (result in words): competition for labeled RLN2 binding to LGR7
Experimental: as §1, §2

LGR7 [3] = target: T1, LGR7; assay: Receptor-activation analysis: cAMP production in LGR7-expressing HEK293T cells; type: cell-based; conditions: for LGR7-activation activity (result in words): LGR7-expressing HEK293T cells
Experimental: (§3) The bioactivity of relaxin family peptides was determined based on the stimulation of adenylate cyclase activity in HEK293T cells stably expressing recombinant LGR7 or LGR8. Stable LGR7- or LGR8-expressing cells were maintained in Dulbecco's modified Eagle's medium/F-12 media supplemented with […] Zeocin (Invitrogen). After seeding at a density of 2×10^5 cells per well in 500 μl of Dulbecco's modified Eagle's medium/F-12 medium containing 0.1% bovine serum albumin in 48-well plates, cells were preincubated at 37° C. for 30 min in the presence of 0.25 mM 3-isobutyl-1-methylxanthine before treatment with increasing concentrations of peptides (from 0 to 100 nM) in quadruplicate. Twelve hours after treatment, the culture was reacted with acetic anhydride/triethylamine, and total cAMP content in cell lysates was measured using a specific cAMP radioimmunoassay. A nontagged human RLN2 peptide was used as a standard to verify the bioactivity of tagged RLN2 peptides.
as §2

LGR8 [4] = target: T2, LGR8; assay: Receptor-activation analysis: cAMP production in LGR8-expressing HEK293T cells; type: cell-based; conditions: for LGR8-activation activity (result in words): LGR8-expressing HEK293T cells
Experimental: as §3, §2

Row | Molecule | LGR8-binding activity (result in words) (LGR8 [1]; listed as RLN2 FA23A) | LGR8-binding activity (result in words) (LGR8 [1]; listed as RLN2 F^A23A) | LGR7-binding activity (result in words) (LGR7 [2]; listed as RLN2 FA23A) | LGR7-binding activity (result in words) (LGR7 [2]; listed as RLN2 F^A23A) | LGR7-activation activity (result in words) (LGR7 [3]; listed as FA23A) | LGR7-activation activity (result in words) (LGR7 [3]; listed as RLN2 FA23A) | LGR8-activation activity (result in words) (LGR8 [4]; listed as RLN2 FA23A) | LGR8-activation activity (result in words) (LGR8 [4]; listed as RLN2 F^A23A) | LGR8-binding activity (result in words) (LGR8 [1]) | LGR7-binding activity (result in words) (LGR7 [2]) | LGR8-activation activity (result in words) (LGR8 [4]) | pIC50 in competition for RLN2 binding to LGR8 (LGR8 [1]; 125I-labeled RLN2 tracer, LGR8-expressing HEK293T cells, mean ± S.E., ND = pIC50 not measurable) | pIC50 in competition for RLN2 binding to LGR7 (LGR7 [2]; 125I-labeled RLN2 tracer, LGR7-expressing HEK293T cells, mean ± S.E.) | pEC50 on the activation of LGR7 (LGR7 [3]; HEK293T cells stably expressing LGR7, mean ± S.E., ND = pEC50 not measurable) | LGR7-activation activity (result in words) (LGR7 [3]) | pEC50 on the activation of LGR8 (LGR8 [4]; HEK293T cells stably expressing LGR8, mean ± S.E., ND = pEC50 not measurable)
1 | RLN2 P^A23A: RLN2 mutant with alanine substitution at the PheA23 position (chain 1 SWMEEVIKLCGRELVRAQIAICGMSTWSHHHHHH; chain 2 QLYSALANKCCHVGCTKRSLARAC; not fully specified; ends and bridges not checked) | significantly reduced the affinity for LGR8 | significantly reduced | affinities similar to that of wild type peptides | without an effect on LGR7-binding activity | preferentially activate LGR7 | retains an LGR7-activation activity similar to that of wild type peptides | lacks an LGR8-activation activity | ablated |  |  |  |  |  |  |  | 
2 | RLN2^A22-23: RLN2 mutant with alanine substitution at the A22-23 region of the A chain (chain 1 SWMEEVIKLCGRELVRAQIAICGMSTWSHHHHHH; chain 2 QLYSALANKCCHVGCTKRSLAAAC; not fully specified; ends and bridges not checked) |  |  |  |  |  |  |  |  | lost its LGR8-binding activity | reduced affinity for LGR7 | ablates LGR8, but not LGR7, activation activity; also recorded: almost abolished |  |  |  |  | 
3 | B1 |  |  |  |  |  |  |  |  |  |  | activates both receptors at the nanomolar range | 7.90 ± 0.16 | 8.72 ± 0.06 | 9.30 ± 0.04 | activates both receptors at the nanomolar range | 7.41 ± 0.14
